{"source": "the nanobody polyreactivity screen of Harvey et al. (2022)"}
{"assay": "yeast display, Sf9 membrane polyspecificity reagent, FACS + sequencing; frameworks hold sequencing errors", "outline": "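In a synthetic yeast display library (Saccharomyces cerevisiae BJ5465), nanobody expression was induced with galactose for 36–48 hours. FACS gates were set low and high (top ~1%) using anti-HA fluorescence for expression and streptavidin fluorescence for binding of the Sf9 membrane reagent. Each polyreactivity label is drawn from the gate of origin.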"}
{"sequence": "QVQLVESGGGLVQAGGSLRLSCAASGITFAFYDKGWYRQPPGKERELVAAISYSGGGTYYADSVKGRFTISRDNAKNNVYLQMNSLKPEDTAVYYCAADPKTHPLFGEDYWGQGTQVTVSS", "polyreactivity (PSR sort gate)": "low polyreactivity"}
{"sequence": "QVQLVESGGGLVQAGGSLRLSCAASGITFALNAMGWYRQAPGKERELVAAISWSGDSTYYADSVKGRFTISRDNAKNTVYLQMNSLKPEDTAVYYCAAVAYLNWTPHYYWGQGTQVTVSS", "polyreactivity (PSR sort gate)": "low polyreactivity"}
{"sequence": "QVQLVESGGGLVQAGGSLRLSCAASGITFANYAVGWYRQAPGKERELVAAISTSGGSTYYADSVKGRFTISRDNAKNTVDLQMNSLKPEDTAVYYCAARPYPWANFGYWGQGTQVTVSS", "polyreactivity (PSR sort gate)": "high polyreactivity"}
{"sequence": "QVQLVESGGGLVQAGGSLRLSCAASGITFAPYAMGWYRQAPGKEREFVAGISWSGTTTYYADSVKGRFTISRDNAKNTVYLQMNSLKPEDTAVYYCATDYFNYGYFDFRWYYYWGQGTQVTVSS", "polyreactivity (PSR sort gate)": "high polyreactivity"}
{"sequence": "QVQLVESGGGLVQAGGSLRLSCAASGITFARYAMGLYIQAPGKERELVAAISKRGGRKYYADSVKGRFTISRDNAKNTVYLQMNSLKPEDTAVYYCATDYYVSTDYNLWGQGTQVTVSS", "polyreactivity (PSR sort gate)": "high polyreactivity"}
{"sequence": "QVQLVESGGGLVQAGGSLRLSCAASGITFAYYAKAWYRQAPGKERELVAAINWSGGSTYYADSVKGRFTISRDNAKNTVYLQMNSLKPEDTAVYYCNAVPRRGYSRRDYWGQGTQVTVSS", "polyreactivity (PSR sort gate)": "high polyreactivity"}
{"sequence": "QVQLVESGGGLVQAGGSLRLSCAASGITFCDNTMGWYRQAPGKERELVAAITYSSTSTYYADSVKGRFTISRDNAKNTVYLQMNSLKTEDTAVYYCAAEGPGDVVSTDYDFWGQGTQVTVSS", "polyreactivity (PSR sort gate)": "low polyreactivity"}
{"sequence": "QVQLVESGGGLVQAGGSLRLSCAASGITFCSYTMGWYRQAPGKERELVAVISSGGSTNYADSVKGRFTISRDNAKNTVYLQMNSLKPEDTAVYYCAADFRWWYTGFDYWGQGTQVTVSS", "polyreactivity (PSR sort gate)": "high polyreactivity"}
{"sequence": "QVQLVESGGGLVQAGGSLRLSCAASGITFCYYVMGWYRQAPGKERELVAAISSGSSTYYADSVKGRFTISRDNAKNTVYLQMNSLKPEDTAVYYCAAESVYWLEFRYYYWGQGTQVTVSS", "polyreactivity (PSR sort gate)": "low polyreactivity"}
{"sequence": "QVQLVESGGGLVQAGGSLRLSCAASGITFDDNAMGWYRQAPGKERELVATISDGGRTYYADSVKGRFTISRDNAKNTVYLQMNSLKPEDTAVYYCAAGYPYYHVYGYGYWGQGTQVTVSS", "polyreactivity (PSR sort gate)": "low polyreactivity"}
{"sequence": "QVQLVESGGGLVQAGGSLRLSCAASGITFDDYVMGWYRQAPGKERELVAAITRSGGRTYYADSVKGRFTISRDNAKNTVDLQMNSLKPEVTAVYYCAARHRDNRFDYWGQGTQVTVSS", "polyreactivity (PSR sort gate)": "high polyreactivity"}
{"sequence": "QVQLVESGGGLVQAGGSLRLSCAASGITFDGNAMGWYRQAPGKERELVAGISGSGGGTYYADSVKGRFTISRDNAKNTVYLQMNSLKPEDTAVYYCAADTSTSHAYDYWGQGTQVTVSS", "polyreactivity (PSR sort gate)": "low polyreactivity"}
{"sequence": "QVQLVESGGGLVQAGGSLRLSCAASGITFDHYAMGWYRQAPGKERELVAAITSGGNTNYADSVKGRFTISRDNAKNTVYLQMNILKPVDTAVYYCNARYDVWYYYWGQGTQVTVSS", "polyreactivity (PSR sort gate)": "high polyreactivity"}
{"sequence": "QVQLVESGGGLVQAGGSLRLSCAASGITFDLYAMGWYRQAPGKERELVAAISISSTSTYYADSVKGRFTISRDNAKNTVYLQMNSLKPEDTAVYYCNAVPSSKTFWFDYWGQGTQVTVSS", "polyreactivity (PSR sort gate)": "low polyreactivity"}
{"sequence": "QVQLVESGGGLVQAGGSLRLSCAASGITFDRYLMGWYRQAPGKERELDAAISWTGDSTYYADSVKGRFTISRDNAKNTVYLQMNSLKPEDPAVYYCAAEDLWYGYNYWGQGTQVTVSS", "polyreactivity (PSR sort gate)": "high polyreactivity"}
{"sequence": "QVQLVESGGGLVQAGGSLRLSCAASGITFDSNAMGWYRQAPGNERELVAAISSTGSTDYADSVKGRFTITRDNAKNTVYLQMNSLKPEDTAVYYCATGGRGGRRYEYWGQGTQVTVSS", "polyreactivity (PSR sort gate)": "low polyreactivity"}
{"sequence": "QVQLVESGGGLVQAGGSLRLSCAASGITFDSNTKGWYRPAPGKEREFVATISYSGGSTYYADSVKGRFTISRDNAKNTVYFQMNSLKPEDTAVYYCHADYYGGPTMQYGYLWYDYWGEGTQVTVSS", "polyreactivity (PSR sort gate)": "low polyreactivity"}
{"sequence": "QVQLVESGGGLVQAGGSLRLSCAASGITFDSYAMGWYRQAPGKEREFVAAISRSGGSTYYADSVKGRFTISRDNAKNTVYLQMNSLKPEDTAVYYCAVSLGRGSSWKLGYWGQGTQVTVSS", "polyreactivity (PSR sort gate)": "high polyreactivity"}
{"sequence": "QVQLVESGGGLVQAGGSLRLSCAASGITFDSYAMGWYRQAPGKERELVAAISYSGGSTYYADSVKGRFTISRDNAKNTVYLQMNSLKPEDTAVYYCAAASDDDYDYWGQGTQVTVSS", "polyreactivity (PSR sort gate)": "low polyreactivity"}
{"sequence": "QVQLVESGGGLVQAGGSLRLSCAASGITFEGYAMGGYRQAPGKERELVAAIRSSGTSTYYADSVKGRFTISRDNAKNTVYLQMNSLKPEDTAVYYCNRARSSSLYDYWGQGTQVTVSS", "polyreactivity (PSR sort gate)": "low polyreactivity"}
{"sequence": "QVQLVESGGGLVQAGGSLRLSCAASGITFEGYAMGRYRQAPGKERELVAAITGSGSTTYYADSVKGRFTISRDNAKNTVYLQMNSLKPEDTAVYYCAADVSYKLYWGQGTQVTVSS", "polyreactivity (PSR sort gate)": "low polyreactivity"}
{"sequence": "QVQLVESGGGLVQAGGSLRLSCAASGITFEGYAMGWYRQAPGKERELVAAITGSGSTTYYADSVKGRFTISRDNAKNTVYLQMNSLKPEDTAVYYCAADVSYKLYWGQGTQVTVSS", "polyreactivity (PSR sort gate)": "low polyreactivity"}
{"sequence": "QVQLVESGGGLVQAGGSLRLSCAASGITFEGYAMGWYRQAPGKERELVAAITWSGGRTYYADSVKGRFTISRDNAKNTVYLQMNSLKPEDTAVYYCAADVSDWSNQYFDSYLRMDYWGQGTQVTVSS", "polyreactivity (PSR sort gate)": "low polyreactivity"}
{"sequence": "QVQLVESGGGLVQAGGSLRLSCAASGITFEIYVMGWYRQAPGKERELVAAITSDDTTYADSVKGRFTISRDNAKNTVYLQMNSLKPEDTAVYYCAADYYGVGVGPYSPADEYDYWGQGTQVTVSS", "polyreactivity (PSR sort gate)": "low polyreactivity"}
{"sequence": "QVQLVESGGGLVQAGGSLRLSCAASGITFEKYAMGWYRQAPGKERELVAAITSSGGSTYYADSVKGRFTISRDNAKNTVYLQMNSLKPEDTAVYYCKARYYYADRTSGGYYYWGQGTQVTVSS", "polyreactivity (PSR sort gate)": "high polyreactivity"}
{"sequence": "QVQLVESGGGLVQAGGSLRLSCAASGITFERYAIGWYRQAPGKERELVAAITSSGGSTYYADSVKGRFTISRDNAKNTVYLQMNSLKPEDTAVYYCAARNAYTPRHDYWGQGTQVTVSS", "polyreactivity (PSR sort gate)": "high polyreactivity"}
{"sequence": "QVQLVESGGGLVQAGGSLRLSCAASGITFERYTMGWYRQAPGKERELVAAIRGSGGTYYADSVKGRFTISRDNAKNTVYLQMNSLKPEDTAVYYCAARYSYRYGVVYGTLHGYWGQGTQVTVSS", "polyreactivity (PSR sort gate)": "high polyreactivity"}
{"sequence": "QVQLVESGGGLVQAGGSLRLSCAASGITFETYAMGWYRPAPGTVRELVAAISSGTDDTYYADSVKGRFTISRDNATNTVYLQMNSLKPEDTAVYYCAALGYATGSWRYYYWGQGTQVTVSS", "polyreactivity (PSR sort gate)": "low polyreactivity"}
{"sequence": "QVQLVESGGGLVQAGGSLRLSCAASGITFEYFDRGWYRQAPGKERELVAAISWSTDITYADSVKGRFTISRDNAKNTVYLQMNSLKPEDTAVYYCAASTYEYTSYDYWGQGTQVTVSS", "polyreactivity (PSR sort gate)": "low polyreactivity"}
{"sequence": "QVQLVESGGGLVQAGGSLRLSCAASGITFEYYTMGWYRQAPGKERELVAAITQGGGTTYYADSVKGRFTISRDNAKNTVYLQMNSLKPEDTAVYYCAAYVGYLLLYYPTYYYWGQGTQVTVSS", "polyreactivity (PSR sort gate)": "low polyreactivity"}
{"sequence": "QVQLVESGGGLVQAGGSLRLSCAASGITFFDYAMGWYIQAPGKERELVAAIDLSDGRTYYADSVKGRFTISRDNAKNTVYLQMNSLKPEDTAVYYCARQHEDYVYYWYYWYDYDYWGQGTQVTVSS", "polyreactivity (PSR sort gate)": "low polyreactivity"}
{"sequence": "QVQLVESGGGLVQAGGSLRLSCAASGITFFDYAMGWYRQAPGKERELFAAIDLSDGRTYYADSVKGRFTISRDNAKNTVYLQMNSLKPEDTAVYYCNADSFLSWVYRYVYYGSGYWGQGTQVTVSS", "polyreactivity (PSR sort gate)": "low polyreactivity"}
{"sequence": "QVQLVESGGGLVQAGGSLRLSCAASGITFFFNAMGWYRQAPGKERELVAAITSGGGSTYYADSVKGRFTISRDNAKNTVYLQMNSLKPEDTAVYYCNADFSKSYDYWGQGTQVTVSS", "polyreactivity (PSR sort gate)": "low polyreactivity"}
{"sequence": "QVQLVESGGGLVQAGGSLRLSCAASGITFFQYAMGWSRQAPGKERELVAAISRSGSRTYYADSVKGRFTISRDNAKNTVYLQLNSLKQEDTAVYYCAAARVNDHYGYYRQMNYWGQCTQVTVSS", "polyreactivity (PSR sort gate)": "high polyreactivity"}
{"sequence": "QVQLVESGGGLVQAGGSLRLSCAASGITFFRYAMGWYRQAPGKERELVAAISSSGGSTYYADSVKGRFTISRDNAKNTVYLQMNSLKPEDTAVYYCAAAHGYRYYWGQGTQVTVSS", "polyreactivity (PSR sort gate)": "high polyreactivity"}
{"sequence": "QVQLVESGGGLVQAGGSLRLSCAASGITFFRYTMGWYRQAPGKEREFVAAINIRGTRTYYADSVKGRFTISRDNAKNTVYLQMNSLKPEDTAVYYCAAGYAYRYSGLSYDVDYWGQGTQVTVSS", "polyreactivity (PSR sort gate)": "high polyreactivity"}
{"sequence": "QVQLVESGGGLVQAGGSLRLSCAASGITFFTYGMGWYRQAPGKERELVASINWSGGTYYADSVKGRFTISRDNAKNTVYLQMNSLKPEDTAVYYCAAETSNSTQEMGYWGQGTQVTVSS", "polyreactivity (PSR sort gate)": "low polyreactivity"}
{"sequence": "QVQLVESGGGLVQAGGSLRLSCAASGITFFTYTMGWYRQAPGKERELVARIRWDGGSTYYADSVKGRFTISRDNAKNTVYLQMNSLKPEDTAVYYCAADYPYSTYDYWGQVTQVTVSS", "polyreactivity (PSR sort gate)": "low polyreactivity"}
{"sequence": "QVQLVESGGGLVQAGGSLRLSCAASGITFGAYAMGWYRQAPGKEMELVAVITRGADTYYADSVKGRFTISRDNAKNTVYLQMNSLKPEDTAVYDCAAEIDLPYYYGSDDDDYWGQGTQVTVSS", "polyreactivity (PSR sort gate)": "high polyreactivity"}
{"sequence": "QVQLVESGGGLVQAGGSLRLSCAASGITFGDYAMGWSRQAPGKERELVAGINWSGDGTYYADSVKGRFTISRDNAKNTVYLQMNSLKPEDTAVYYCAAETFYDYGGYDYWGQGTQVTVSS", "polyreactivity (PSR sort gate)": "low polyreactivity"}
{"sequence": "QVQLVESGGGLVQAGGSLRLSCAASGITFGFNAMGWYRQAPGKERELVAAITWSVGRTYYADSVKGRFTISRDNAKNTVYLQMNSLKPEDTAVYYCAKEFVAGDDYFAYDYWGQGTQVTVSS", "polyreactivity (PSR sort gate)": "low polyreactivity"}
